Measured values published in US20160102139A1 (NATIONAL UNIVERSITY CORPORATION CHIBA UNIVERSITY, published 2016).
Where a chain is given by its changes, count along the chain named.

T1: mouse Myl12b (myosin regulatory light chain polypeptide 12b) (mouse, UniProt Q3THE2 1-172, limits assumed)
T1 construct: Native protein in mouse bone marrow extract (BM lysate) or mouse tissues; also called Myl9/12
T1 sequence: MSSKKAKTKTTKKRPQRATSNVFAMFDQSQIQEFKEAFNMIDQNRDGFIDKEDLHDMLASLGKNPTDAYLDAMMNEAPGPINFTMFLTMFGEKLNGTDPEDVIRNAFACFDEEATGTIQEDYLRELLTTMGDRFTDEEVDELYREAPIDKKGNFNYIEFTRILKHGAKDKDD

T2: mouse Myl9 (myosin regulatory light chain polypeptide 9) (mouse, UniProt Q9CQ19 2-172)
T2 construct: Native protein in mouse bone marrow extract (BM lysate) or mouse tissues; also called Myl9/12
T2 sequence: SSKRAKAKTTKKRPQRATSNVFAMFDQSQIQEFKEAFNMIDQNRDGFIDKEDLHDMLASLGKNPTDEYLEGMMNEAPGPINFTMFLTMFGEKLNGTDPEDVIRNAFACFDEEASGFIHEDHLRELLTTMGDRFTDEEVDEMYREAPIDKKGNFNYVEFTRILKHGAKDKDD

B1: mouse Myl12a (myosin regulatory light chain polypeptide 12a) (ligand)
chain: T1 sequence with K5R, L61M, A68E, T115I
notes: Native protein in mouse bone marrow extract (BM lysate) or mouse tissues; also called Myl9/12
B2: 3xFlag mCD69EC treated with the deglycosylation enzyme PNGase F (receptor, mouse, UniProt P37217 62-199, looked up)
chain: NVGKYNCPGLYEKLESSDHHVATCKNEWISYKRTCYFFSTTTKSWALAQRSCSEDAATLAVIDSEKDMTFLKRYSGELEHWIGLKNEANQTWKWANGKEFNSWFNLTGSGRCVSVNHKNVTAVDCEANFHWVCSKPSR
modifications: N-glycans removed by PNGase F (500 U per 1 ug protein)
notes: extracellular domain; Same polypeptide as m2, after deglycosylation with N-glycosidase PNGase F; also called CD69EC previously treated with PNGase F; deglycosylated 3xFLAG mCD69EC; not shown: N-terminal 3xFlag tag from vector p3xFLAG CMV-9
B3: mouse CD69 extracellular domain protein having 3xFlag-tag added thereto (3xFlag mCD69EC) (receptor, UniProt P37217 62-199, looked up)
chain: B2 chain
notes: extracellular domain; also called mCD69EC protein; not shown: N-terminal 3xFlag tag from vector p3xFLAG CMV-9

Legend:
Experiment in all cases: immunoprecipitation with anti-Flag M2 antibody from bone marrow extract, immunoblot with anti-Myl9/12 antibody
[1] = biological target: B2
Procedure: (§1) Then, whether the binding of Myl9, Myl12a, and Myl12b with CD69 actually occurred was investigated. Firstly, mCD69EC sequence was inserted to p3xFLAG CMV-9 (Sigma-Aldrich Co. LLC.) having Flag tag incorporated at the N-terminal to produce an expression vector of mCD69EC sequence having Flag-Tag added at the N-terminal. The expression vector was transformed to 293 T cells to overexpress 3xFlag mCD69EC, and then a cell extract was prepared. As a control, a cell extract was prepared from 293 T cells overexpressing 3xFlag peptide. 3xFlag mCD69EC protein or 3xFlag peptide was purified from the cell extract using anti-[…] (SEQ ID NO: 21) tag antibody beads (Wako Pure Chemical Industries, Ltd.). In this case, […] is a peptide represented by a single letter code for an amino acid. Those purified proteins were each subjected to a reaction with a bone marrow extract (BM lysate) in the same manner as described above and the resultant products were subjected to immunoprecipitation using anti-Flag M2 antibody (Sigma-Aldrich Co. LLC.) and protein-G (GE Healthcare). After the immunoprecipitation was performed, the precipitates were separated by SDS-PAGE and transferred to a polyvinylidene difluoride (PVDF) membrane (Bio-Rad Laboratories, Inc.). Subsequently, immunoblotting was performed using an antibody which recognized Myl9, Myl12a, and Myl12b (hereinafter referred to as anti-Myl9/12 antibody). That is, each protein was detected by ChemiDocXRS+ (Bio-Rad Laboratories, Inc.) with ECL detection reagents (GE Healthcare) using rabbit anti-Myl9 antibody (Abcam plc.) as a primary antibody and horseradish peroxidase (HRP)-labeled anti-rabbit IgG antibody (Cell Signaling Technology, Inc.) as a secondary antibody. Deglycosylation treatment of the mCD69EC protein was performed by adding 500 U of N-glycosidase PNGase F (New England Biolabs Ltd.) to 1 μg of 3xFLAG mCD69EC.

[2] = biological target: B3
Procedure: as §1

[3] = biological target: T1, mouse Myl12b (myosin regulatory light …)
Procedure: as §1

[4] = biological target: T2, mouse Myl9 (myosin regulatory light …)
Procedure: as §1

| binding result [1] | binding result [2] | binding result [3] | binding result [4] | Binder |
| --- | --- | --- | --- | --- |
| binds | binds | – | – | B1 |
| – | – | binds | binds | B2 |
| – | – | binds | binds | B3 |
